Measured values: the nanobody polyreactivity screen of Harvey et al. (2022)

Test: yeast display, Sf9 membrane polyspecificity reagent, FACS + sequencing; frameworks hold sequencing errors
Method in brief: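 A nanobody's polyreactivity label depends on the gate it was sorted from. Yeast display cells were stained with 10% biotinylated, detergent-solubilized Sf9 membrane reagent for 1 hour at 4 °C, enriched on streptavidin microbeads and sorted by FACS. The low and high (top ~1%) gates were set on anti-HA fluorescence for expression and streptavidin fluorescence for reagent binding.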
With “QVQLVQSGGGLVQAGGSLRLSCAASGRIFRLSGMGWYRQAPGKERELVAAITRGASTYYADSVKGRFTISRDNAKNTVYLELNSLKPEDTAVYYCAAEGLITGGYWHLYYWGHGTQVTVSS” the “polyreactivity (PSR sort gate)” value was “high polyreactivity”.
In the case of “QVQLVQSGGGLVQAGGSLRLSCAASGRIFVDNAMAWYRQAPGKERELDAGLTTGGSTYYADSVKGRFTISRDNAKNTVYLQMNSLKPEDTAVYYCNARDHALHRDVLYWYGFDYWAQGTQVTVSS”, the “polyreactivity (PSR sort gate)” value is reported as “low polyreactivity”.
In the case of “QVQLVQSGGGLVQAGGSLRLSCAASGSIFGDYAMGWYRQAPGKEREFVARINVSGTSTFYADSVKGRFTISRDNAKNTVYLQMNSLKPEDTAVYYCAARGLPSNYYYYVHGYIMDYWGQGTQVTVSS”, the “polyreactivity (PSR sort gate)” value is reported as “low polyreactivity”.
With “QVQLVQSGGGLVQAGGSLRLSCAASGSIIGTYAMGCYRQAPGKERELVADINSGGSTYYADSVKGRFTISRDNAKNTVYLQMNSLKPDDTAVYYCAATGGVLYGTWLSYDRWGGGYWGQGTQVTVSS” the “polyreactivity (PSR sort gate)” value was “low polyreactivity”.
In the case of “QVQLVQSGGGLVQAGGSLRLSCAASGSTFPQNAMGWNRQAPGKERELVAVISRSGGNTYYADSVKGRFTISRDNAKNTVYLQMNSLKPEDTAVYYCATRVNTTYDYWGQGTQVTVSS”, the “polyreactivity (PSR sort gate)” value is reported as “low polyreactivity”.
With “QVQLVQSGGGLVQAGGSLRLSCAASGSTFSGYTMGWYRQAPGKEREFVAAISSRGGSTYYADSVKGRFTISRDNAKNTVYLQMNSLKPEDTAVYYCAAKVWARVDGRQFRMEYWGQGTQVTVSS” the “polyreactivity (PSR sort gate)” value was “high polyreactivity”.
In the case of “QVQLVQSGGGLVQAGGSLRLSCAASGSTFYVYAMGWYRQAPGKEREFVAAISRSGGRTYYAVSVKGRFTISRDNAKNTVYLQMNSLKPEDTAVYYCNARDSLRYYTYYFEDYRVGYDYWGQGTQVTVSS”, the “polyreactivity (PSR sort gate)” value is reported as “high polyreactivity”.
In the case of “QVQLVQSGGGLVQAGGSLRLSCDASGSMFLVYAMGWYRQAPGKERELVAAISRSGRTYADSVKGRFTISRDNAKNTVYLQMNSLKPEDTAVYYCAAGTKRRFEGDYWVQGTQVTVSS”, the “polyreactivity (PSR sort gate)” value is reported as “high polyreactivity”.
For “QVQLVQSGGGLVQAGGSLRVSCAPSGRIYAMGWSRQAPGKERELVARITKSGTSTYYADSVKGRFTISRDNAKNTVYLQMNSMKPEDTAVYYCATATFYRSVLYGYWGQGTQVTVSS”, the “polyreactivity (PSR sort gate)” value was “high polyreactivity”.
For “QVQLVQSGGGLVQAGGSLSLICAASGRIFGYYAMGWYRQAPGKERELVDTITFGGGSTYYADSVKGRFTISRDNAKNTVYLQMNSLKPEDTAVYYCAADCGYLGIYGDEYSWGQGTQVTVSS”, the “polyreactivity (PSR sort gate)” value was “low polyreactivity”.
In the case of “QVQLVQSGGGLVQAGGSLSLSCAGSGSTFHNYAMGWYRQAPGQEREMVAGISVRGGGTYYAYSVKGRFTISRDNANNTVYVQMNSLKPEETAVYYCAASRSRYSVNWYNYWGQGTQVTVSS”, the “polyreactivity (PSR sort gate)” value is reported as “high polyreactivity”.
With “QVQLVQSGGRLVQAGGSLRLSCAASGLIFVHYTMGWYRQAPGKERELVASINSGGSTNYADSVKGRFTISRDNAKNTVYLQMISLKPEDTAVYYCADRRVVFWRRMYYWGQGTQVTVSS” the “polyreactivity (PSR sort gate)” value was “high polyreactivity”.
For “QVQLVQSRGGLVHAGGSLRFSSAATGITILRYAMGWYIQAPGKERELVAGISWDGGRTYNADSVKGRFTISRDNAKNTVFLQMNSMKPEDTEVYYCADKPSRYRVSLFDYWGHGTQVTVSS”, the “polyreactivity (PSR sort gate)” value was “low polyreactivity”.
With “QVQLVQSRGGLVQAGGSLRLSCAASGSTFSGNAMGWYRPAPGKEREFVAAITSSGGSTYYADSVKGRFTISRDNAKNSVYLQMNSLKPEDTAVYYCATDNPFLWWFRPDQHGMGYWGQGTQVTVSS” the “polyreactivity (PSR sort gate)” value was “low polyreactivity”.
With “QVQLVQSWPGLVQEGGSLRLSSAESGYTIRWYAMGCYRQAHGKERELVASITSGGNTNYADSVKGRFTISRDNAKNTVYLQMNRLKTEDTEVYYCAATRGYYRLDYWGQGTQVTVSS” the “polyreactivity (PSR sort gate)” value was “high polyreactivity”.
For “QVQLVQTGGGLVQAGGSLRLSCAASGRTFRYYAMGLYRQAPGKEREFVATITYSSGSTYYADSVKGRFTISRDNAKNTVYLQMNSLKPEDTAVYYCNAEGYCNSYGYWGQGTQVTVSS”, the “polyreactivity (PSR sort gate)” value was “low polyreactivity”.
With “QVQLVVSGGGLVQAGGSIRLSCAASGRIFFYNAMGWYRQAPGKERELVAGISSGGGSTYYADSVKGRFTISRDNAKNTVYLQLNSLKPDDPAVYYCNKVVYSYSVGVGEYDYWGQGTQVTVSS” the “polyreactivity (PSR sort gate)” value was “high polyreactivity”.
In the case of “QVQLVVSGGGLVQAGGSLRLRCAASGRTFVRYAMGWSRQAPGKERELVARITTRGTSTYYADSVKGRFTISRDNAKNTVYLLLNSLKPEDTAVYYCNKVRTFRDKSRYDYWGQGTQVTVSS”, the “polyreactivity (PSR sort gate)” value is reported as “low polyreactivity”.
In the case of “QVQLVVSGGGLVQAGGSLRLRCAASGRTIWPYAMGWYRQAPRKESEFDAAITWTVGRTYYADSVKGRFTISRDNAKNTVYLQMNSLKPDDTAVYYCNARSYSQTLFGYPDDYWGQGTQVTVSS”, the “polyreactivity (PSR sort gate)” value is reported as “high polyreactivity”.
With “QVQLVVSGGGLVQAGGSLRLSCAASGRTFRSYAMGWYRQAPGKERELVAAISYGGGSTYYADSVKGRFTISRDNAKNTVYLQMNSLKPEDTAVYYCAAAVYKRGGYDYWGQGTQVTVSS” the “polyreactivity (PSR sort gate)” value was “high polyreactivity”.
In the case of “QVQLVVSGGGLVQAGGSLRLSCAASGSFFPIYAMGWYRQAPGKERELVAAITSGGSTNYADSVKGRFTISRDNAKNTVYLQMNSLKPEDTAVYYCAAGGPDHADRYEYWGQGTQVTVSS”, the “polyreactivity (PSR sort gate)” value is reported as “low polyreactivity”.
For “QVQLVVSGGGLVQAGGSLRLSCAASGSIFNVYAMGWYRPAPGKARELVAAITNGDSTNYADSVKGRFTISRDTAKNTVYLQMHSLKPEDTAVYYCNARAPSEYYGLEYDDWGQGTQGTVSS”, the “polyreactivity (PSR sort gate)” value was “low polyreactivity”.
In the case of “QVQLVVSGGGLVQAGGSLRLSCAASGSIFRYYAMGWFRQAPGQERELVASITRGGTSTYYADSVKGRFTISRDNAKNTVYLQMNSLKPDDTAVYYCAAKGYLSRYDNWGLGTQVTVSS”, the “polyreactivity (PSR sort gate)” value is reported as “high polyreactivity”.
In the case of “QVQLVVSGGGLVQAGGSLRLSCAASGSIFVSNAMGWYRQAPGKEREFVAAITGSGGSTYYADSVKGRFPISRDNAKNTVYLQMNSLKPEDTAVYYCNAGLIHFYAGNYDLYDYWGQGTQVTVSS”, the “polyreactivity (PSR sort gate)” value is reported as “low polyreactivity”.
In the case of “QVQLVVSGGGLVQAGGSLRLSCAASGSILDSNAMGWYRQAPGKERELVAAITSGGSTYYADSVKGRFTISRDNAKNTVYLQMNSLKPEDTAVYYCNANGVQYFLYGYWGQGTQVTVSS”, the “polyreactivity (PSR sort gate)” value is reported as “low polyreactivity”.
With “QVQLVVSGGGLVQAGGSLRLSCAASGYTFDDYAMAWYRQAPGKERELVAAISRGGSTYYADSVKGRFTISRDNAKNTVYLQMNSLIPEDTSVYYCAAVYRVRKITNDYWGQGTQVTVSS” the “polyreactivity (PSR sort gate)” value was “high polyreactivity”.
In the case of “QVQLVVSGGGLVQAGGSLRLSCSASGYTFWRYAMGWYRQAPGKERELVAAISQSGGRTYYADSVKGRYTISRDNAKNTVYLQMNSLKPEDTAVYFCATSYSQGDDYWGQGTQVTVSS”, the “polyreactivity (PSR sort gate)” value is reported as “high polyreactivity”.
With “QVQLVVSGGGLVQEGGSLRLSCAASGGLFSLYAMGWYRQAPGKEREFVSAISFSGASTYYADSVKGRFTISRDNAKNTVSLQKNSLKPEDTSVYYCAAYWDAVGRRYTRLYYWGQGTQVTVSS” the “polyreactivity (PSR sort gate)” value was “low polyreactivity”.
With “QVQLVVSGGGLVQPGGSLRLSCAATGSTLNSYVMGWYRQAPGKERELVATIRSGSSTNYADSVKGRFTISRDNAKNTVYLLMNSLKPEDTAVYYFAADAYSLCYDSWGQGTLVTVSS” the “polyreactivity (PSR sort gate)” value was “low polyreactivity”.
With “QVQLVVSGGRLVQGAGSHRLSSAASGSIFPKYAMGWYRQAPGKERDLVATISYRGGRTYYADSVKGRFTISRDNAKNTVNLQMNCLKPEDTAVYYCNAHSQAKLDYWGQGSQVTVSS” the “polyreactivity (PSR sort gate)” value was “low polyreactivity”.
With “QVQLVYSGGGLVQAGGSLRLSCAASGSIFFVYAMGWYRQAPGKERELDAAITSGGSTKDADSVKGRFTISRDNAKNTVYLQMNSLKPEDTAVYYCAKDYKCIATEGAFDYWGQGTQVTVSS” the “polyreactivity (PSR sort gate)” value was “low polyreactivity”.
In the case of “QVQMQEIGGGLVQASGSLRLSCAASGNIFPDYFMGWYRLAPGKEREFVANITGGSTTNYADSVKGRFTISRDNAKNTVYLQINSLKPEDTAVYYCAVNFGTEQHAYWGQGTQVTVSS”, the “polyreactivity (PSR sort gate)” value is reported as “high polyreactivity”.
With “QVQMQESGGGLVQAGGSLRLICAASGTISVHASMGWYRQAPGKERELVAGITDGANTYYADSVKGRFTISRDNSKNTVYLQMNSLKPEDTAVYYCAAYYGTEVHFTYWGQGTQVTVSS” the “polyreactivity (PSR sort gate)” value was “low polyreactivity”.
For “QVQPQESGGGLVQAGGSLRLSCAASGTIFAFQTMGWYRQAPGKERELVASITYGSSTNYADSVKGRFTISRDNAKNTVYLQMNSLKPEDTAVYYCAVPQAQYYYDYWGQGTQVTVSS”, the “polyreactivity (PSR sort gate)” value was “high polyreactivity”.
With “QVQPQESGGGQVQAGSCLRLSCTASGYIFLYAYMGRYRQAPGKEREFVATITDGTSTYYADSVKGRFTISRNNAKNIVYLQMNSLKPEDTAVYYCAADAGGGYPGDEDWGQGTQVTVSS” the “polyreactivity (PSR sort gate)” value was “low polyreactivity”.
In the case of “QVQPVESGGGLDQAGGSLRLSCAASGRILWSYAMGWYRQAPGKERELVAAIRTSGGSTYYADSVKGRFTISRDNAKNTVYLQMNSLKPEDTAVYYCAADRTLFSTVDYWGQGTQVTVSS”, the “polyreactivity (PSR sort gate)” value is reported as “low polyreactivity”.
In the case of “QVQPVESGGGLVQAGGSLRLSCAASGIIFPYYAMGWYRQEPGKERELVAAISTGGSTYYADSVKGRFTISRDNAKNTVYLQMNSLKPEDTAVYCCAAATSYGKSEYDYWGQGTQVTVSS”, the “polyreactivity (PSR sort gate)” value is reported as “high polyreactivity”.
With “QVQQQESGGGLVQAGGSLRLSCAASGTIFQLTVMGRYRQAPGKERQLVASIDYGGNTNYADSVKGRFTISRDNAKNTVYLQMNSLKPEDTAVYYCAASSDSWTTHPYWGQGTQVTVSS” the “polyreactivity (PSR sort gate)” value was “low polyreactivity”.
With “QVQQQESGGGLVQAGGSLRQSYAASGYIFPSLAMGWYRQAPGKEREFVAAIGRGSTNNYADSVKGRFTISRDNAKNTAYQQMNSLKPEDTAVYYSAAAASPLTRHLYWGQGTQVNVSS” the “polyreactivity (PSR sort gate)” value was “low polyreactivity”.
For “QVQQVESGGGLVQAGGSLRLSCADSGRTFTLYAMGWYRQAPGKERELVAAITWRGGRTYYADSVKGRFTISRDNAKNTVYFQMNSLKPEVTEVYYCAARKYSPQLDRYGYWGQGTQVTVSS”, the “polyreactivity (PSR sort gate)” value was “high polyreactivity”.
In the case of “QVQQVESGGGLVQAGGSLRLSSAASGITFRYYAMGWYRQAPGKERELVAAISSTGGSSYYADSVKGRFTISRDNAKNTVYLQMNSLKPEDTAVYYCNTQYNSQYDYWGQGTQVTVSS”, the “polyreactivity (PSR sort gate)” value is reported as “high polyreactivity”.
With “QVQQVESGGGLVQAGGSLRLSWAASGRIFVINGMGWYRQAPGKERELVAGISSGGTTYADSVKGRFTISRDNAKNTVYLQMNSLKPEDTEVYYCAARGRYQPQFDYWGQGTQVTVSS” the “polyreactivity (PSR sort gate)” value was “high polyreactivity”.
In the case of “QVQREESGGGLFQAGGTLRLSCAASGFTFVWYAMGWNRQATGKERELVAAITRSGGSTYYADSVKGRFTISRDNAKNTVYLQMNSLKPEDTAVYYCNVSYGTFPGRALFANNFYYWGQGTQVTVSS”, the “polyreactivity (PSR sort gate)” value is reported as “low polyreactivity”.
